Test results published in patent US20250034268A1.

Key:
[1] = target: human BCMA expressed on the cell surface (human) (UniProt Q02223); assay: flow cytometry on H929 cells
[2] = target: mouse BCMA expressed on CHO GS cells (mouse) (UniProt O88472); assay: flow cytometry on mBCMA-CHO-GS cells
[3] = target: human BCMA expressed on the cell surface (human) (UniProt Q02223); assay: flow cytometry on RPMI8226 cells
[4] = target: cynomolgus monkey BCMA expressed on CHO GS cells (cynomolgus monkey); assay: flow cytometry on cynoBCMA-CHO-GS cells
Sequence of cynomolgus monkey BCMA expressed on CHO GS cells (cynomolgus monkey) (chain, as listed by the source): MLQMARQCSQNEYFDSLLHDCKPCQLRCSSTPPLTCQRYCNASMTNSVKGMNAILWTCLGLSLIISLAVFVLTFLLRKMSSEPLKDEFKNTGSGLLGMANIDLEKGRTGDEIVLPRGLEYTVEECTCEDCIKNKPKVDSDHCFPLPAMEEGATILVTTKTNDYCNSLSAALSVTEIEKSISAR

[5] = target: human BCMA expressed on the cell surface (human) (UniProt Q02223); assay: flow cytometry on MM.1s cells
[6] = target: human BCMA expressed on the cell surface (human) (UniProt Q02223); assay: flow cytometry on U266 cells
[7] = target: human BCMA expressed on the cell surface (human) (UniProt Q02223); assay: flow cytometry on AMO1 cells
[8] = target: human BCMA expressed on the cell surface (human) (UniProt Q02223); assay: flow cytometry on L363 cells
[9] = target: human BCMA expressed on the cell surface (human) (UniProt Q02223); assay: flow cytometry on hBCMA-CHO-GS cells

Sequence of human BCMA expressed on the cell surface (human) (Q02223 whole entry): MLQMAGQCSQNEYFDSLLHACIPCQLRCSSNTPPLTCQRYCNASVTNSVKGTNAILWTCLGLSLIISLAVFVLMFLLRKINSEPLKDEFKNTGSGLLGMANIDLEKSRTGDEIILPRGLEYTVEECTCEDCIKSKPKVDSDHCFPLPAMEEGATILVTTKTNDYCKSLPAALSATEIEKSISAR
Sequence of mouse BCMA expressed on CHO GS cells (mouse) (O88472 whole entry): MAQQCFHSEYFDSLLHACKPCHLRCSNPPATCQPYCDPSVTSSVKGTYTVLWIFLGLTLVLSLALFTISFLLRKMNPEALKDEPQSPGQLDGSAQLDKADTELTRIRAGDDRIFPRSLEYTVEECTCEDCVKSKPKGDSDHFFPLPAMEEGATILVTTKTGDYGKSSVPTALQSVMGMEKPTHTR

EC50 [1]: 7.69 nM | EC50 [2]: 132 nM | EC50 [3]: 5.97 nM | EC50 [4]: 10 nM | EC50 [5]: 7.54 nM | EC50 [6]: 8.74 nM | EC50 [7]: 12.9 nM | EC50 [8]: 10.4 nM | EC50 [9]: 5 nM
Substance: GSK PG antibody (BCMA antibody clone J6M0 of GSK, P329G human IgG1)
